# Source: US8030017B2, “Thermostable luciferases and methods of production” (Promega Corporation, priority 1997, dated 2011)
# B1: Luc78-0B10: mutant luciferase, SEQ ID NO:19 (protein)
# chain: MADKNILYGPEPFYPLADGTAGEQMFDALSRYADISGCIALTNAHTKENVLYEEFLKLSCRLAESFKKYGLKQNDTIAVCSENGLQFFLPVIASLYLGIIAAPVSDKYIERELIHSLGIVKPRIIFCSKNTFQKVLNVKSKLKSVETIIILDLNEDLGGYQCLNNFISQNSDSNLDVKKFKPYSFNRDDQVALVMFSSGTTGVPKGVMLTHKNIVARFSLAKDPTFGNAINPTTAILTVIPFHHGFGMMTTLGYFTCGFRVVLMHTFEEKLFLQSLQDYKVESTLLVPTLMAFLAKSALVEKYDLSHLKEIASGGAPLSKEIGEMVKKRFKLNFVRQGYGLTETTSAVLITPKGDARPGSTGKIVPFHAVKVVDPTTGKILGPNEPGELYFKGAMIMKGYYNNEEATKAIIDNDGWLRSGDIAYYDNDGHFYIVDRLKSLIKYKGYQVAPAEIEGILLQHPYIVDAGVTGIPDEAAGELPAAGVVVQTGKYLNEQIVQDFVSSQVSTAKWLRGGVKFLDEIPKGSTGKIDRKVLRQMFEKHTNG
# modifications: Mutant luciferase
# B2: Luc49-7C6: mutant luciferase, SEQ ID NO:14 (protein)
# chain: MADKNILYGPEPFYPLADGTAGEQMFYALSRYADISGCIALTNAHTKENVLYEEFLKLSCRLAESFKKYGLKQNDTIAVCSENGLQFFLPIIASLYLGIIAAPVSDKYIERELIHSLGIVKPRIIFCSKNTFQKVLNVKSKLKYVETIIILDLNEDLGGYQCLNNFISQNSDINLDVKKFKPYSFNRDDQVALVMFSSGTTGVSKGVMLTHKNIVARFSLAKDPTFGNAINPTTAILTVIPFHHGFGMMTTLGYFTCGFRVVLMHTFEEKLFLQSLQDYKVESTLLVPTLMAFLAKSALVEKYDLSHLKEIASGGAPLSKEIGEMVKKRFKLNFVRQGYGLTETTSAVLITPNNDVRPGSTGKIVPFHAVKVVDPTTGKILGPNEPGELYFKGDMIMKGYYNNEEATKAIINKDGWLRSGDIAYYDNDGHFYIVDRLKSLIKYKGYQVAPAEIEGILLQHPYIVDAGVTGIPDEAAGELPAAGVVVQTGKYLNEQIVQNFVSSQVSTAKWLRGGVKFLDEIPKGSTGKIDRKVLRQMFEKHTNG
# modifications: Mutant luciferase
# Experiments:
# [1] = Robotic quantitative screen of E. coli lysates: signal stability (S), sustained enzymatic turnover; assay type: biochemical; details: inverse ratio with reference
# Method: (§1) One daughter plate is placed in the luminometer and the 1X assay method is used. After the assay, the plate is placed in the ambient incubator, and the second daughter plate is placed in the luminometer. For the second plate, the 0.02X assay method is used. This plate is discarded, and the first plate is returned from the incubator to the luminometer. The repeat assay method is used (i.e., no reagent is injected). Afterwards, the plate is again returned to the ambient incubator.
# The plate in the ambient incubator is returned to the luminometer and the repeat assay method is again used. The plate is returned afterwards to the ambient incubator.
# The plate in the ambient incubator is returned to the luminometer and the repeat assay method is again used. The plate is discarded afterwards.
# (§2) The following criteria were used for screening purposes. The temperature chosen for the enzyme stability parameter was such that the parent enzyme would decay 100 to 1000 fold over 10 hours (see Table 1). Criteria 1 is achieved manually; data for criteria 2-6 is generated by robotic analysis. For all criteria, the maximum value as described is selected. • 1. In vivo screen. The brightest clones are selected at a given temperature. • 2. Expression/specific activity. The value for normalized luminescence is calculated as the ratio of luminescence to optical density. The value is reported as the ratio with the reference value. • 3. Enzyme stability. Measurements of normalized luminescence of the incubated samples (3 taken over about 15 hours) are fitted to In(L)=In(L0)−(t/τ), where L is normalized luminescence and t is time. τ is a measure of the enzyme stability. The value is reported as the ratio with the reference value, and the correlation coefficients are calculated. • 4. Substrate binding. Measurements of normalized luminescence with 1X and 0.02X are taken at the initial reading set, and 1X and 0.06X are taken at the 5 hour set. The ratio of the 0.02X:1X and 0.06X:1X gives the relative luminescence at 0.02X and 0.06X concentrations. These values, along with the relative luminescence at 1X (i.e., 1), are fitted to a Lineweaver-Burk plot to yield the Km:app,total for the substrates ATP, luciferin, and CoA. The values are reported as the inverse ratio with the reference value, and the correlation coefficients are calculated. • 5. Signal stability. The luminescence of the initial IX luminescent reactions are re-measured 3 additional times over about 15 hours. These values are fitted to In(L)=In(L0)−(t/τ) and the integral over t (15 hours) is calculated. Signal stability is then calculated as S=(1−int(L)/L0t)^2. The values are reported as the inverse ratio with the reference value, and the correlation coefficients are calculated. • 6. Composite fitness. The values of criteria 2 through 5 are combined into a single composite value of fitness (or commercial utility). This value is based on a judgment of the relative importance of the other criteria. This judgment is given below:
# Calculate signal stability (S): For each sample, use linear regression to fit In(L)=In(L0)[…] using the four luminescence measurements of the initial microplate with 1X substrate concentrations (Plates 1, 3, 4, and 7). Also calculate the regression coefficient. From the calculated values of T and L0, calculate the integral of luminescence by int(L)=τL0(1−exp(−tf/τ)), where tf is the average time of the last measurement (e.g., 15 hours). The signal stability is calculated as S=(1−int(L)/Litf)^2, where Li is the initial measurement of normalized luminescence with 1× substrate concentration (Plate 1).
# [Note: To correct for evaporation, an equation S=(1+K−int(L)/Litf)^2, may be used where 1/K=2(relative change of liquid volume at tf).]
# Calculate the reference-normalized values: For the criteria parameter of each sample, a reference-normalized value is determined by calculating the ratio or inverse ratio with the respective reference value. […]
# [2] = Robotic quantitative screen of E. coli lysates: enzyme stability (tau) at elevated temperature; assay type: physicochemical; details: relative value
# Method: Two white assay plates (Labsystems #9502887) are obtained from the plate feeder and placed in the pipetter. The incubation plate from the shaker is placed in the pipetter, and the lid removed and placed on the nearby locator. Two daughter plates are made using the pipetting procedure (see “Create Pair of Daughter Plates from Incubation Plate”). Afterwards, the lid is replaced on the parent plate, and the plate is placed in a high temperature incubator. [ranging from 31° C. to about 65° C. depending on the clone.]
# To begin the second set of measurements, the plate from the high temperature incubator is placed in the shaker to mix.
# In the final set of measurements, the plate from the high temperature incubator is again placed in the shaker to mix.
# as §2
# Calculate enzyme stability (τ): For each sample, use linear regression to fit In(L1x)=In(L0)−(t/τ) using the three luminescence measurements with 1X substrate concentrations (Plates 1, 5, 8). Also calculate the regression coefficient.
# Calculate the reference-normalized values: For the criteria parameter of each sample, a reference-normalized value is determined by calculating the ratio or inverse ratio with the respective reference value. The reference-normalized values are Li/Lir, τ/τr, Kmr/Km:app,total, and Sr/S, where reference values are calculated from the equations of the appropriate reference surface.
# “Enzyme stability” was determined by the rate of activity loss from cell lysates over 10 hours. In successive rounds of evolution the incubation temperature of the lysates was increased.
# Robotic Automation: Robotic automation was used in the quantitative screens to accurately perform the large number of required quantitative assays on the cultured cells. […]
# [3] = Robotic quantitative screen of E. coli lysates: luminescence activity (Li), expression/specific activity; assay type: biochemical; details: relative value
# Method: A plate containing cells is retrieved from the carousel and placed on the shaker for 3-5 minutes to fully mix the cells. The cells tend to settle from solution upon standing.
# To measure Optical Density (O.D.), the plate is moved from the shaker to the locator near the luminometer; the lid is removed and the plate placed into the luminometer. The O.D. is measured using a 620 nm filter.
# To prepare a cell lysate, the plate of cells is first retrieved from the refrigerator and mixed on the shaker to resuspend the cells. A new plate from the carousel without a lid is placed in the reagent dispenser and 20 μl of Buffer A is added to each well. This is placed in the pipetting station.
# The plate is then moved to the reagent dispenser to add 175 μl of Buffer B, and then mixed on the shaker for about 15 minutes or more. The combination of the freeze/thaw and Buffer B will cause the cells to lyse.
# as §1
# 1X Assay reagent: 5 μM Luciferin; 175 μM ATP; 20 mM Tricine, pH 8.0; 0.1 mM EDTA
# as §2
# Normalize luminescence data: For each measurement of luminescence in the eight daughter plates, the normalized luminescence is calculated by dividing the relative light units by the optical density of the original plate. […]
# [4] = Michaelis-Menten constant for luciferin of purified mutants; assay type: biochemical; details: purified enzyme
# Source text: (§3) Substrate binding was screened by measuring an apparent composite Km (see Example 2) for luciferin and ATP. […] The Km for luciferin rose while the Km for ATP declined (Table 3). The reason for this change is unknown, although it can be speculated that more efficient release of oxyluciferin or luciferin inhibitors could lead to more rapid enzyme turnover.
# (§4) Protein purification: Four mutants that are described herein (Luc[T249M], Luc49-7C6, Luc78-0B10, and Luc90-1B5) were purified using a previously published procedure (Hastings et al., 1996).
# [5] = Thermostability (half-life, retained activity) of luciferases incubated in aqueous solution at different temperatures; assay type: physicochemical; details: for thermostability compared with parent enzyme: 4° C., times of less than 15 days (FIG. 49); for half-life: 22° C. (FIGS. 9, 10); for Thermostability Of Luciferase Activity (Half-Life In Hours): purified enzyme
# Source text: As defined herein, a “thermostable” enzyme, e.g., a luciferase, or an enzyme which has “thermostability”, is an enzyme which under certain conditions, e.g., at certain temperature, in aqueous solution and/or for certain periods of time, has an increased retention of activity relative to a reference enzyme. For example, for a thermostable luciferase, a reference luciferase may be native wild-type luciferase or recombinant wild-type luciferase. Preferably, for beetle luciferases, the activity is luminescence under conditions of saturation with luciferin and ATP. One measure of thermostability of an enzyme is the half-life of the enzyme in an aqueous solution (the time over which 50% of the activity is lost) at a stated temperature.
# as §4
# […] Enzyme stability was determined from diluted proteins incubated at different temperatures, and aliquots were removed at different time points. A linear regression of the natural log of the luminescence and time was calculated. Half-life was calculated as the 1n(0.5)/slope of the regression.
# [6] = Michaelis-Menten constant for ATP of purified mutants; assay type: biochemical; details: purified enzyme
# Source text: as §3, §4
# [7] = Control is Luc71-5D4 at 60° C. (=1)
# [8] = Room Temperature (about 25° C.)
# [9] = Control is Luc46-2H3 at 54° C. (=1)
Km [4],Molecule,"Signal stability (S) [1, 7]","Enzyme stability (tau) [2, 7]","Luminescence (Li) [3, 7]",thermostability compared with parent enzyme [5],half-life [5],Thermostability Of Luciferase Activity (Half-Life In Hours) ([5]; 37° C.),Thermostability Of Luciferase Activity (Half-Life In Hours) ([5]; 50° C.),"half-life calculated from regression of log luminescence ([5]; 60° C. (FIGS. 6, 8))",Thermostability Of Luciferase Activity (Half-Life In Hours) ([5]; 60° C.),"half life calculated from regression of log luminescence ([5]; FIG. 5, temperature not given)","Thermostability Of Luciferase Activity (Half-Life In Hours) [5, 8]",Km [6],"Signal stability (S) [1, 9]","Enzyme stability (tau) [2, 9]","Luminescence (Li) [3, 9]",half-life calculated from regression of log luminescence ([5]; 50° C. (FIG. 7))
1.6 µM,B1,0.9926,2,1.93,not distinguishable from the parent enzyme,109 days,220 h,47 h,38 hours,15 h,144 hours,3000 h,3.4 µM,,,,
0.99 µM,B2,,,,not distinguishable from the parent enzyme,64 days,68 h,31 h,2.9 hours,6.3 h,,430 h,14 µM,1.01,1.9,1.12,100.5 hours
